According to the Human Domainome abundance scans (Beltran et al. 2025):
± gives the uncertainty stated by the source.

B1: Storkhead-box protein 2, residues 64 to 141; numbered along this chain, Q9P2F5 (parent)
chain: SPISQSQFIPLGEILCLAISAMNSARKPVTQEALMEHLTTCFPGVPTPSQEILRHTLNTLVRERKIYPTPDGYFIVTP

Variants of: B1
Experiment: abundance fitness (aPCA) (normalised: wild type 0, dead -1); higher = more abundant; growth selection in yeast, the domain comes from the species named
Settings: Homo sapiens

Abundance fitness, by site and new letter:
S24: D -0.018 ± 0.14 | M -0.125 ± 0.057 | Y -0.093 ± 0.083 | K 0.037 ± 0.073 | V -0.007 ± 0.052 | T 0.058 ± 0.052 | L -0.078 ± 0.038 | C -0.084 ± 0.066 | W -0.226 ± 0.045 | A -0.002 ± 0.047 | Q 0.026 ± 0.076 | R -0.018 ± 0.035 | I 0.018 ± 0.11 | E 0.009 ± 0.048 | N 0.063 ± 0.12 | H -0.141 ± 0.095 | P -0.34 ± 0.038 | F -0.162 ± 0.08
I14: N -0.384 ± 0.16 | Y -0.108 ± 0.14 | T -0.034 ± 0.063 | R -0.073 ± 0.059 | S 0.01 ± 0.057 | P -0.032 ± 0.085 | W -0.105 ± 0.079 | V -0.031 ± 0.068 | Q -0.118 ± 0.13 | M 0.024 ± 0.15
L17: I 0.133 ± 0.2 | M -0.041 ± 0.07 | P -0.092 ± 0.052 | H 0.034 ± 0.11 | A 0.005 ± 0.04 | C -0.116 ± 0.074 | G -0.016 ± 0.036 | W -0.129 ± 0.05 | V -0.059 ± 0.043 | D -0.069 ± 0.081 | N 0.079 ± 0.087 | E 0.039 ± 0.059 | S 0.008 ± 0.042 | T 0.043 ± 0.066 | F -0.096 ± 0.093
N23: D -0.061 ± 0.083 | L -0.354 ± 0.041 | K -0.451 ± 0.084 | C -0.226 ± 0.076 | E -0.108 ± 0.051 | P -0.564 ± 0.055 | Y -0.357 ± 0.087 | A -0.156 ± 0.052 | W -0.31 ± 0.043 | F -0.535 ± 0.12 | S -0.12 ± 0.038 | H -0.111 ± 0.079 | I -0.296 ± 0.083 | Q -0.123 ± 0.063 | R -0.156 ± 0.031 | T -0.144 ± 0.066 | M -0.211 ± 0.072 | G -0.126 ± 0.033 | V -0.143 ± 0.046
E32: S -0.03 ± 0.048 | Y -0.104 ± 0.11 | W -0.139 ± 0.047 | V -0.071 ± 0.045 | F -0.159 ± 0.11 | C -0.174 ± 0.11 | G -0.046 ± 0.033 | T 0.008 ± 0.091 | D -0.088 ± 0.073 | K -0.057 ± 0.081 | A -0.008 ± 0.047 | H 0.056 ± 0.11 | L -0.117 ± 0.046 | P -0.042 ± 0.047 | I -0.072 ± 0.15 | M -0.094 ± 0.081 | N -0.126 ± 0.11 | R -0.077 ± 0.041 | Q 0.041 ± 0.065
L34: A -0.45 ± 0.044
A18: Q -0.26 ± 0.13 | M -0.593 ± 0.17 | V -0.163 ± 0.062 | H -0.125 ± 0.16 | S -0.197 ± 0.066 | I -0.308 ± 0.16 | P -0.887 ± 0.1 | F -0.446 ± 0.098 | W -0.496 ± 0.062 | R -0.148 ± 0.049 | C -0.001 ± 0.076 | K -0.282 ± 0.11 | N -0.376 ± 0.21 | T -0.099 ± 0.081 | E -0.102 ± 0.081 | G -0.095 ± 0.048 | D -1.1 ± 0.38
S20: V -0.171 ± 0.044 | N 0.076 ± 0.16 | L -0.172 ± 0.024 | Y -0.181 ± 0.096 | P -0.405 ± 0.074 | Q 0.019 ± 0.087 | H -0.219 ± 0.12 | E -0.022 ± 0.069 | R -0.025 ± 0.04 | A -0.104 ± 0.039 | W -0.419 ± 0.053 | D -0.116 ± 0.17 | K 0.018 ± 0.075 | I -0.359 ± 0.099 | M -0.115 ± 0.067 | G -0.039 ± 0.037 | T -0.006 ± 0.06
A21: G -0.063 ± 0.047 | L -0.305 ± 0.051 | F -0.212 ± 0.091 | T -0.086 ± 0.089 | H -0.181 ± 0.17 | P -0.774 ± 0.072 | Y 0.056 ± 0.097 | M -0.235 ± 0.079 | S 0.062 ± 0.052 | I -0.24 ± 0.18 | Q 0.002 ± 0.073 | C -0.137 ± 0.07 | V -0.167 ± 0.048 | R -0.019 ± 0.051 | N 0.235 ± 0.16 | W -0.244 ± 0.091 | D 0.002 ± 0.079 | K 0.051 ± 0.046
L15: N -0.613 ± 0.32 | I -0.061 ± 0.097 | P -0.983 ± 0.098 | K -0.572 ± 0.15 | A -0.034 ± 0.15 | H -0.796 ± 0.31 | G -1.06 ± 0.13 | V 0.039 ± 0.061 | R -0.977 ± 0.079 | Q -1.03 ± 0.15 | S -0.235 ± 0.042 | E -0.67 ± 0.12 | T 0.059 ± 0.048 | Y -0.252 ± 0.11 | M -0.049 ± 0.075
V29: T -0.162 ± 0.11 | G -0.417 ± 0.033 | Q -0.386 ± 0.099 | S -0.065 ± 0.056 | L -0.408 ± 0.041 | F -0.213 ± 0.057 | R -0.792 ± 0.048 | W -0.363 ± 0.055 | D -0.928 ± 0.16 | N -1.07 ± 0.44 | M -0.278 ± 0.077 | C 0.02 ± 0.052 | Y -0.592 ± 0.12 | H -0.496 ± 0.11 | P -0.17 ± 0.061
M22: L 0.015 ± 0.036 | I -0.128 ± 0.097 | E -0.719 ± 0.25 | Q -0.226 ± 0.066 | S -0.306 ± 0.04 | C -0.114 ± 0.08 | Y -0.243 ± 0.13 | D -0.515 ± 0.29 | N -0.334 ± 0.12 | F -0.201 ± 0.075 | K -0.403 ± 0.064 | A -0.234 ± 0.074 | H -0.226 ± 0.078 | R -0.205 ± 0.043 | V -0.354 ± 0.044 | W -0.336 ± 0.05 | G -0.257 ± 0.036 | P -0.739 ± 0.06 | T -0.616 ± 0.067
I19: F -0.317 ± 0.15 | Q -1.15 ± 0.21 | R -1.01 ± 0.088 | H -0.852 ± 0.44 | V -0.154 ± 0.051 | S -0.823 ± 0.062 | W -0.825 ± 0.06 | Y -1.26 ± 0.33 | G -1.07 ± 0.12 | E -1 ± 0.15 | A -0.341 ± 0.055 | T -0.224 ± 0.06 | L -0.23 ± 0.047 | P -0.948 ± 0.12 | C -0.21 ± 0.067
A25: V -0.033 ± 0.044 | W -0.189 ± 0.053 | D 0.018 ± 0.099 | H -0.001 ± 0.12 | K -0.007 ± 0.079 | N -0.068 ± 0.14 | E -0.049 ± 0.1 | P -0.368 ± 0.061 | R -0.066 ± 0.045 | L -0.026 ± 0.038 | S -0.055 ± 0.038 | F -0.08 ± 0.058 | C -0.05 ± 0.074 | I -0.053 ± 0.08 | G -0.175 ± 0.044 | Q -0.021 ± 0.073 | M -0.048 ± 0.11
Q31: Y -0.051 ± 0.075 | E 0.01 ± 0.043 | L -0.065 ± 0.033 | V -0.027 ± 0.037 | K -0.141 ± 0.067 | S -0.019 ± 0.036 | C 0.056 ± 0.062 | M -0.049 ± 0.054 | P 0.018 ± 0.036 | F -0.095 ± 0.073 | T 0.013 ± 0.058 | I -0.074 ± 0.091 | N 0.004 ± 0.09 | H -0.209 ± 0.07 | G -0.064 ± 0.029 | A -0.045 ± 0.045 | R -0.061 ± 0.03
A33: Q 0.009 ± 0.061 | H 0.019 ± 0.079 | I -0.274 ± 0.087 | V -0.127 ± 0.046 | K -0.028 ± 0.074 | Y -0.167 ± 0.11 | C -0.188 ± 0.075 | R -0.045 ± 0.037 | T -0.118 ± 0.062 | D -0.154 ± 0.082 | W -0.279 ± 0.05 | S -0.001 ± 0.041 | E -0.067 ± 0.047 | L -0.061 ± 0.032 | N 0.1 ± 0.14 | G -0.038 ± 0.035 | P -0.339 ± 0.043
R26: H -0.09 ± 0.09 | S -0.04 ± 0.05 | N 0.023 ± 0.14 | P -0.195 ± 0.059 | Y -0.248 ± 0.11 | F -0.089 ± 0.049 | M -0.124 ± 0.12 | V -0.09 ± 0.042 | E -0.016 ± 0.092 | Q -0.018 ± 0.2 | T -0.005 ± 0.077 | C -0.115 ± 0.089 | D -0.011 ± 0.083 | L -0.078 ± 0.044 | G -0.009 ± 0.037 | W -0.134 ± 0.072 | I -0.199 ± 0.066 | A -0.021 ± 0.048
K27: A -0.077 ± 0.04 | W -0.184 ± 0.04 | F -0.182 ± 0.078 | L -0.12 ± 0.034 | D -0.235 ± 0.08 | E -0.054 ± 0.075 | T 0.034 ± 0.043 | M -0.1 ± 0.058 | P -0.689 ± 0.084 | S -0.045 ± 0.04 | V -0.079 ± 0.035 | Q 0.064 ± 0.077 | I -0.072 ± 0.091 | G -0.132 ± 0.03 | N -0.156 ± 0.14 | H -0.119 ± 0.084
C16: T -0.027 ± 0.097 | V -0.074 ± 0.051 | P -0.124 ± 0.098 | R -0.061 ± 0.051 | E -0.148 ± 0.087 | D -0.353 ± 0.084 | K -0.155 ± 0.12 | W -0.052 ± 0.076 | Y -0.021 ± 0.079 | A -0.197 ± 0.069 | M -0.04 ± 0.088 | S -0.091 ± 0.06 | I -0.01 ± 0.1 | L -0.019 ± 0.041 | F -0.074 ± 0.11 | Q 0.072 ± 0.19 | N -0.08 ± 0.13 | G -0.249 ± 0.033
P28: V -0.072 ± 0.048 | Y -0.032 ± 0.098 | H -0.015 ± 0.11 | S -0.087 ± 0.047 | N -0.024 ± 0.13 | Q 0.063 ± 0.062 | L -0.2 ± 0.043 | M -0.005 ± 0.073 | T 0.009 ± 0.066 | W -0.214 ± 0.064 | G -0.133 ± 0.037 | R -0.054 ± 0.037 | A -0.016 ± 0.058 | K -0.076 ± 0.1 | F -0.187 ± 0.17 | I -0.091 ± 0.12
T30: R -0.095 ± 0.035 | A -0.166 ± 0.037 | V -0.033 ± 0.042 | N -0.352 ± 0.12 | F -0.074 ± 0.057 | D -0.067 ± 0.07 | M -0.102 ± 0.068 | C -0.026 ± 0.058 | W -0.043 ± 0.047 | S 0.002 ± 0.038 | Y -0.142 ± 0.072 | G -0.116 ± 0.035 | I -0.211 ± 0.066 | P -0.486 ± 0.058 | K -0.089 ± 0.094 | L -0.218 ± 0.036 | Q 0.01 ± 0.067
